{"source": "patent US20190375786A1", "about": "“STABLE PEPTIDES AND METHODS OF USE THEREOF” (Fred Hutchinson Cancer Research Center, priority 2016, published 2019)", "key": {"[1]": {"test": "Resistance to reduction by DTT, RP-HPLC", "assay_type": "physicochemical", "conditions": "10 mM DTT in PBS, room temperature, 30 minutes; HPLC peak vs untreated peptide", "method": "Peptides were first suspended in 500 ul of ddH2O to a stock concentration of 2 mg/ml. Reactions were prepared by adding 12.5 ug of peptide from the stock solution to a 10 mM solution of DTT in PBS and allowed to incubate at room temperature for 30 minutes. Other reactions were prepared with 12.5 μg peptide with or without 500 U/ml pepsin in simulated gastric fluid (SGF; pH 1.05; […] sodium chloride in 0.7% (v/v) hydrochloric acid) and were incubated for 30 minutes at 37.5° C. Some reactions were quenched with a final concentration of 100 mM Tris base and 10 mM dithiothreitol (DTT). Some reactions were performed in all of the above components, including simulated gastric fluid, pepsin, Tris, and DTT (referred to as SPTD). Reversed phase HPLC (RP-HPLC) was run on samples using an Agilent 1260 HPLC equipped with a C-18 Poroshell 120B column. Sample were analyzed by a gradient method with a mobile phase of Solvent A (water with 0.1% TFA) and Solvent B (acetonitrile with 0.1% TFA). Solvent B was ramped up from 5%-45% of the mobile phase over a period of 10 minutes. Peptides were detected at an absorbance of 214 nm and 280 nm.\nPeptides were first suspended in 500 μl of ddH2O to a stock concentration of 2 mg/ml. Reactions were prepared by adding 12.5 μg of peptide from the stock solution to a 10 mM solution of DTT in PBS and allowed to incubate at room temperature for 30 minutes. Other reactions were prepared with 12.5 μg peptide and 500 U/ml trypsin in 25 mM Tris/75 mM NaCl buffer (pH 7.0) and incubated for 30 minutes at 37.5° C. These reactions were then quenched with 5 μg of soybean trypsin inhibitor (I) and, in some cases, 10 mM dithiothreitol (DTT). Reversed phase HPLC (RP-HPLC) was run on samples using an Agilent 1260 HPLC equipped with a C-18 Poroshell 120B column. Sample were analyzed by a gradient method with a mobile phase of Solvent A (water with 0.1% TFA) and Solvent B (acetonitrile with 0.1% TFA). Solvent B was ramped up from 5%-45% of the mobile phase over a period of 10 minutes. For testing pepsin digestion resistance, reactions were prepared with 12.5 μg peptide with or without 500 U/ml pepsin in simulated gastric fluid (SGF; pH 1.05; […] sodium chloride in 0.7% (v/v) hydrochloric acid) and were incubated for 30 minutes at 37.5° C. For testing temperature resistance, peptides were incubated at 70° C., 75° C., or 100° C. for one hour in 0.5 mM PBS, pelleted, and then the supernatant was analyzed by HPLC.\nThis example illustrates peptide stability in biological conditions including in the presence of reducing agents, proteases, oxidative conditions, acidic conditions, and simulated gastric fluids. […] Various peptides were suspended in 500 μl of ddH2O at a stock concentration of 2 mg/ml. This was then diluted in accord with the reaction conditions to prevent adverse buffering effects. Reactions were prepared with 12.5 μg peptide dissolved in solution and, in some samples, additionally suspended in a 10 mM solution of DTT, simulated gastric fluid (pH 1.05; […] sodium chloride in 0.7% (v/v) hydrochloric acid), 500 U pepsin (5000 U/ml pepsin), 50 U trypsin (500 U/ml trypsin) with 1 mg/ml inhibitor in PBS, or a combination of any of these conditions. All protease reactions were incubated for 30 min at room temperature and then quenched. Pepsin reactions were quenched by adding Tris base to a final concentration of 0.075 M. Trypsin reactions were quenched by adding excess soybean trypsin inhibitor. RP-HPLC was then run on samples using an Agilent 1260 HPLC equipped with a C-18 Poroshell 120B column. Sample were analyzed by a gradient method with a mobile phase of Solvent A (water with 0.1% TFA) and Solvent B (acetonitrile with 0.1% TFA). Solvent B was ramped up from 5%-45% of the mobile phase over a period of 10 minutes.\nFIG. 18 illustrates high performance liquid chromatograph (HPLC) traces of peptides in non-reducing (NR) conditions (solid trace) or in 10 mM DTT reducing (R) conditions (dashed trace). […]"}, "[2]": {"test": "Resistance to elevated temperature, HPLC", "assay_type": "physicochemical", "conditions": "HPLC peak vs untreated peptide; for Resistance to Temperature (75° C.): 75° C. for one hour; for Resistance to Temperature (100° C.): 100° C. for one hour", "in_short": "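Peptides were incubated at room temperature, 70° C or 100° C for one hour in ddH2O; another protocol used 70° C, 75° C or 100° C for one hour in 0.5 mM PBS, then pelleting and analysis of the supernatant. Remaining peptide was measured by C-18 RP-HPLC, 5–45% acetonitrile/0.1% TFA over 10 min.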"}, "pepsin": {"target": "pepsin (Sus scrofa, UniProt P00791)", "sequence (P00791 60-385)": "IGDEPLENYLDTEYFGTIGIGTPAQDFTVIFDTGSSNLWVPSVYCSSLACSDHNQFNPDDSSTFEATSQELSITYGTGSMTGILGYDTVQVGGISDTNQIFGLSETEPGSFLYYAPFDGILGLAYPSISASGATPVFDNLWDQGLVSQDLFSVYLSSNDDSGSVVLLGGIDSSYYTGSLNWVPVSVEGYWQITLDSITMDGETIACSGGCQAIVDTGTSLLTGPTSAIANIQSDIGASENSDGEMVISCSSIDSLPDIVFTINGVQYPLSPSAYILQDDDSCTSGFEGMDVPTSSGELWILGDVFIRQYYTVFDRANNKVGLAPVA", "test": "Pepsin digestion resistance in simulated gastric fluid, RP-HPLC", "assay_type": "in vitro ADME, porcine", "set-up": "purchased Sigma Aldrich P7012", "conditions": "500 U/ml pepsin in SGF pH 1.05, 30 minutes at 37.5° C.; HPLC peak vs untreated peptide", "in_short": "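Digestion resistance read by reversed-phase HPLC (C-18, 0.1% TFA, 5–45% acetonitrile over 10 min; 214/280 nm) after 12.5 μg peptide spent 30 min at 37.5 °C in pH 1.05 simulated gastric fluid, with or without 500 U/ml pepsin. Some samples quenched with Tris base and DTT.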"}, "trypsin": {"target": "trypsin (Sus scrofa, UniProt P00761)", "sequence (P00761 9-231)": "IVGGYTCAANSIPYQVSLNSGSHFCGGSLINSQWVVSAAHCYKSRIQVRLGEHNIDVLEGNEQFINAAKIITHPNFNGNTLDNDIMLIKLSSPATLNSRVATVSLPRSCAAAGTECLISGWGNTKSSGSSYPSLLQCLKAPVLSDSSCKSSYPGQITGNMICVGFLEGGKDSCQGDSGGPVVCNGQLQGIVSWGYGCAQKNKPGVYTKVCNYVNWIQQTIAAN", "test": "Trypsin digestion resistance of soluble peptide, RP-HPLC", "assay_type": "in vitro ADME, porcine", "set-up": "purchased Sigma Aldrich 6567", "conditions": "500 U/ml trypsin, 30 minutes at 37.5° C.; HPLC peak vs untreated peptide", "in_short": "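Read-out was RP-HPLC (C-18, water/acetonitrile with 0.1% TFA, 5-45% over 10 min) of peptide left after trypsin treatment. Digest: 12.5 μg peptide, 500 U/ml porcine trypsin, PBS, 37.5° C for 30 min, stopped by soybean trypsin inhibitor; samples then reduced (10 mM DTT) or left non-reduced.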"}}}
{"substance": "17 (GSACQFWSCNSSCISRGYRQGYCWGIQYKYCQCQ) [compound 17]", "values": [{"measurement": "Resistance to DTT Reduction (10 mM)", "setting": "[1]", "value": "Moderate (A peptide classified as medium indicates that about half (between 25% and 75%) of the HPLC peak of the treated peptide disappeared as compared to the HPLC peak of the untreated peptide)"}, {"measurement": "Resistance to Temperature (75° C.)", "setting": "[2]", "value": "High (A peptide classified as high indicates that the majority (at least 75%) of the HPLC peak of the treated peptide is still present as compared to the HPLC peak of the untreated peptide)"}, {"measurement": "Resistance to Temperature (100° C.)", "setting": "[2]", "value": "High (A peptide classified as high indicates that the majority (at least 75%) of the HPLC peak of the treated peptide is still present as compared to the HPLC peak of the untreated peptide)"}, {"measurement": "Resistance to Pepsin (500 U/ml)", "setting": "pepsin", "value": "High (A peptide classified as high indicates that the majority (at least 75%) of the HPLC peak of the treated peptide is still present as compared to the HPLC peak of the untreated peptide)"}, {"measurement": "Resistance to Trypsin (500 U/ml)", "setting": "trypsin", "value": "Low (A peptide classified as low indicates that the majority (over 75%) of the HPLC peak of the treated peptide disappeared as compared to the HPLC peak of the untreated peptide)"}]}
{"substance": "19 (GSQDKCKKVYENYPVSKCQLANQCNYDCKLDKHARSGECFYDEKRNLQCICDYCEY) [compound 19]", "values": [{"measurement": "Resistance to DTT Reduction (10 mM)", "setting": "[1]", "value": "Low (A peptide classified as low indicates that the majority (over 75%) of the HPLC peak of the treated peptide disappeared as compared to the HPLC peak of the untreated peptide)"}, {"measurement": "Resistance to Temperature (75° C.)", "setting": "[2]", "value": "High (A peptide classified as high indicates that the majority (at least 75%) of the HPLC peak of the treated peptide is still present as compared to the HPLC peak of the untreated peptide)"}, {"measurement": "Resistance to Temperature (100° C.)", "setting": "[2]", "value": "Moderate (A peptide classified as medium indicates that about half (between 25% and 75%) of the HPLC peak of the treated peptide disappeared as compared to the HPLC peak of the untreated peptide)"}, {"measurement": "Resistance to Pepsin (500 U/ml)", "setting": "pepsin", "value": "High (A peptide classified as high indicates that the majority (at least 75%) of the HPLC peak of the treated peptide is still present as compared to the HPLC peak of the untreated peptide)"}, {"measurement": "Resistance to Trypsin (500 U/ml)", "setting": "trypsin", "value": "High (A peptide classified as high indicates that the majority (at least 75%) of the HPLC peak of the treated peptide is still present as compared to the HPLC peak of the untreated peptide)"}]}
{"substance": "20 (GSGHACYRNCWREGNDEETCKERC) [compound 20]", "values": [{"measurement": "Resistance to DTT Reduction (10 mM)", "setting": "[1]", "value": "Low (A peptide classified as low indicates that the majority (over 75%) of the HPLC peak of the treated peptide disappeared as compared to the HPLC peak of the untreated peptide)"}, {"measurement": "Resistance to Temperature (75° C.)", "setting": "[2]", "value": "High (A peptide classified as high indicates that the majority (at least 75%) of the HPLC peak of the treated peptide is still present as compared to the HPLC peak of the untreated peptide)"}, {"measurement": "Resistance to Temperature (100° C.)", "setting": "[2]", "value": "Moderate (A peptide classified as medium indicates that about half (between 25% and 75%) of the HPLC peak of the treated peptide disappeared as compared to the HPLC peak of the untreated peptide)"}, {"measurement": "Resistance to Pepsin (500 U/ml)", "setting": "pepsin", "value": "High (A peptide classified as high indicates that the majority (at least 75%) of the HPLC peak of the treated peptide is still present as compared to the HPLC peak of the untreated peptide)"}, {"measurement": "Resistance to Trypsin (500 U/ml)", "setting": "trypsin", "value": "High (A peptide classified as high indicates that the majority (at least 75%) of the HPLC peak of the treated peptide is still present as compared to the HPLC peak of the untreated peptide)"}]}
{"substance": "21 (GSRCQLQGFNCVVRSYGLPTIPCCRGLTCRSYFPGSTYGRCQRY) [compound 21]", "values": [{"measurement": "Resistance to DTT Reduction (10 mM)", "setting": "[1]", "value": "Low (A peptide classified as low indicates that the majority (over 75%) of the HPLC peak of the treated peptide disappeared as compared to the HPLC peak of the untreated peptide)"}, {"measurement": "Resistance to Temperature (75° C.)", "setting": "[2]", "value": "High (A peptide classified as high indicates that the majority (at least 75%) of the HPLC peak of the treated peptide is still present as compared to the HPLC peak of the untreated peptide)"}, {"measurement": "Resistance to Temperature (100° C.)", "setting": "[2]", "value": "Low (A peptide classified as low indicates that the majority (over 75%) of the HPLC peak of the treated peptide disappeared as compared to the HPLC peak of the untreated peptide)"}, {"measurement": "Resistance to Pepsin (500 U/ml)", "setting": "pepsin", "value": "High (A peptide classified as high indicates that the majority (at least 75%) of the HPLC peak of the treated peptide is still present as compared to the HPLC peak of the untreated peptide)"}, {"measurement": "Resistance to Trypsin (500 U/ml)", "setting": "trypsin", "value": "Moderate (A peptide classified as medium indicates that about half (between 25% and 75%) of the HPLC peak of the treated peptide disappeared as compared to the HPLC peak of the untreated peptide)"}]}
{"substance": "23 (GSEVIRCSGSKQCYGPCKQQTGCTNSKCMNKVCKCYGCG) [compound 23]", "values": [{"measurement": "Resistance to DTT Reduction (10 mM)", "setting": "[1]", "value": "Low (A peptide classified as low indicates that the majority (over 75%) of the HPLC peak of the treated peptide disappeared as compared to the HPLC peak of the untreated peptide)"}, {"measurement": "Resistance to Temperature (75° C.)", "setting": "[2]", "value": "High (A peptide classified as high indicates that the majority (at least 75%) of the HPLC peak of the treated peptide is still present as compared to the HPLC peak of the untreated peptide)"}, {"measurement": "Resistance to Temperature (100° C.)", "setting": "[2]", "value": "Low (A peptide classified as low indicates that the majority (over 75%) of the HPLC peak of the treated peptide disappeared as compared to the HPLC peak of the untreated peptide)"}, {"measurement": "Resistance to Pepsin (500 U/ml)", "setting": "pepsin", "value": "High (A peptide classified as high indicates that the majority (at least 75%) of the HPLC peak of the treated peptide is still present as compared to the HPLC peak of the untreated peptide)"}, {"measurement": "Resistance to Trypsin (500 U/ml)", "setting": "trypsin", "value": "Low (A peptide classified as low indicates that the majority (over 75%) of the HPLC peak of the treated peptide disappeared as compared to the HPLC peak of the untreated peptide)"}]}
